This is an account of results in patent US20080267980A1.

The assay concerns the target C3 ligand for CR2 deposited on CHO cells (human) (UniProt P01024). In words: cell-based or functional assay.

B1: CR2-CD59 (protein)
chain: ISCGSPPPILNGRISYYSTPIAVGTVIRYSCSGTFRLIGEKSLLCITKDKVDGTWDKPAPKCEYFNKYSSCPEPIVPGGYKIRGSTPYRHGDSVTFACKTNFSMNGNKSVWCQANNMWGPTRLPTCVSVFPLECPALPMIHNGHHTSENVGSIAPGLSVTYSCESGYLLVGEKIINCLSSGKWSAVPPTCEEARCKSLGRFPNGKVKEPPILRVGVTANFFCDEGYRLQGPPSSRCVIAGQGVAWTKMPVCSGGGGSLQCYNCPNPTADCKTAVNCSSDFDACLITKAGLQVYNKCWKFEHCNFNDVTTRLRENELTYYCCKKDLCNFNEQLEN
In turn, B1 yielded a 50% inhibition of CHO cell lysis of 102 nM.

B2: CR2-DAF (protein)
chain: ISCGSPPPILNGRISYYSTPIAVGTVIRYSCSGTFRLIGEKSLLCITKDKVDGTWDKPAPKCEYFNKYSSCPEPIVPGGYKIRGSTPYRHGDSVTFACKTNFSMNGNKSVWCQANNMWGPTRLPTCVSVFPLECPALPMIHNGHHTSENVGSIAPGLSVTYSCESGYLLVGEKIINCLSSGKWSAVPPTCEEARCKSLGRFPNGKVKEPPILRVGVTANFFCDEGYRLQGPPSSRCVIAGQGVAWTKMPVCGGGSGGGGSDCGLPPDVPNAQPALEGRTSFPEDTVITYKCEESFVKIPGEKDSVICLKGSQWSDIEEFCNRSCEVPTRLNSASLKQPYITQNYFPVGTVVEYECRPGYRREPSLSPKLTCLQNLKWSTAVEFCKKKSCPNPGEIRNGQIDVPGGILFGATISFSCNTGYKLFGSTSSFCLISGSSVQWSDPLPECREIYCPAPPQIDNGIIQGERDHYGYRQSVTYACNKGFTMIGEHSIYCTV
In the case of B2, the 50% inhibition of CHO cell lysis was determined as 18 nM.
